This data set relates to CTCF (human). As to the kind of experiment: EMSA. For orientation: A gel shift assay detects complexes by their altered migration in electrophoresis.

This is an account of results in publication doi:10.1101/2019.12.15.876185.

Cacna1b e37a DNA probe (139 bp): the Kd was determined as 0.0461 ng.
